# From patent publication US20020064869A1 (published 2002)
# T1: TR2 on the surface of human cells (MDA-MB-231, HT-29, PBL T cells) (human, UniProt Q92956 39-283)
# T1 sequence (looked up): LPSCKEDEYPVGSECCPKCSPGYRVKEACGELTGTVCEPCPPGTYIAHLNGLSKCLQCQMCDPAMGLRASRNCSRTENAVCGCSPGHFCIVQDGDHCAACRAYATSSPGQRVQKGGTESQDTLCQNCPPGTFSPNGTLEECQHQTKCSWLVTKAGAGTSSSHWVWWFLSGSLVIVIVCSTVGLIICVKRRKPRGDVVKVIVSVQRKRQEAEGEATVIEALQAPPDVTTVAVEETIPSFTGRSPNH
# B1: recombinant soluble form of AIM II protein (sAIM II), Flag-tagged, amino acids 74-240 of AIM II (ligand, not shown: small tags and cut ends)
# chain: DGPAGSWEQLIQERRSHEVNPAAHLTGANSSLTGSGGPLLWETQLGLAFLRGLSYHDGALVVTKAGYYYIYSKVQLGGVGCPLGLASTITHGLYKRTPRYPEELELLVSQQSPCGRATSSSRVWWDSSFLGGVVHLEAGEEVVVRVLDERLVRLRDGTRSYFGAFMV
# B2: ck-beta8/AIM II fusion protein, extracellular region of AIM II (amino acids 60-240), from CHO 11 conditioned media (ligand)
# chain: SQAGSQLHWRLGEMVTRLPDGPAGSWEQLIQERRSHEVNPAAHLTGANSSLTGSGGPLLWETQLGLAFLRGLSYHDGALVVTKAGYYYIYSKVQLGGVGCPLGLASTITHGLYKRTPRYPEELELLVSQQSPCGRATSSSRVWWDSSFLGGVVHLEAGEEVVVRVLDERLVRLRDGTRSYFGAFMV
# notes: Two N-termini were found (40% each): SQAGS... and GSQLH; the second species lacks the first three residues SQA; also called CHO-11 AIM II; ck-beta-8-AIM2
# How the values were obtained:
# [1] = biological target: Fas on TIL1200 cells (human) (UniProt P25445); test: cell-based or functional assay
# Chain of Fas on TIL1200 cells (human) (P25445 26-335): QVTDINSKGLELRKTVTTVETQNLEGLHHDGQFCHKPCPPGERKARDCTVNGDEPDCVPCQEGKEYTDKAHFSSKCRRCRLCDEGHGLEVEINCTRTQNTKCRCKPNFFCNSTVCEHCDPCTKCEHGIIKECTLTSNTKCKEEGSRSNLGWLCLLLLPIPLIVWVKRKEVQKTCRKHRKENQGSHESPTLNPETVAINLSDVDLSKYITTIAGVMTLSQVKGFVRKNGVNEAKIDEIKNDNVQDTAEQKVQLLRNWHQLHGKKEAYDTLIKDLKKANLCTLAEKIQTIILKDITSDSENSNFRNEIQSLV
# [2] = biological target: T1, TR2 on the surface of human cells …; test: cell-based or functional assay
# [3] = biological target: LTβR on the surface of human cancer cells (MDA-MB-231, HT-29) (human, UniProt P36941 31-435); test: cell-based or functional assay
# Chain of LTβR on the surface of human cancer cells (MDA-MB-231, HT-29) (P36941 31-435): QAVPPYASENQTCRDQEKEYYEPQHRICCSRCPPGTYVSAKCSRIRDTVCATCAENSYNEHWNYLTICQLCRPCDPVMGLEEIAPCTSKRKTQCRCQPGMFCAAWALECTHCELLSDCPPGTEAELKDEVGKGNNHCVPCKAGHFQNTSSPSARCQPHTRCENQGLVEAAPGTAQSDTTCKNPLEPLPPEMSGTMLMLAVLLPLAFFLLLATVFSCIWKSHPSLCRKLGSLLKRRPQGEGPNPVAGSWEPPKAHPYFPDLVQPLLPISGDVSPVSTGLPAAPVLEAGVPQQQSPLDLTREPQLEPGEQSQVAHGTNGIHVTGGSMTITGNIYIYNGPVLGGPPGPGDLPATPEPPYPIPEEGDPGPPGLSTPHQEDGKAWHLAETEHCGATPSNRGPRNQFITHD
# [4] = biological target: T2, human LTβR-Fc fusion protein (extracellular domain of lymphotoxin-β receptor fused to IgG1 Fc) (human, UniProt P36941 31-227); test: BIAcore, LTβR-Fc immobilized, CHO conditioned media
# T2 construct: extracellular domain; Made in baculovirus-infected Sf21 cells; also called sLTβR-Fc; lymphotoxin-β receptor-Fc fusion protein; not shown: IgG1 Fc from vector pUC19-IgG1-Fc; hybridomas were counter-screened on human IgG1
# T2 sequence (P36941 31-227 limits assumed): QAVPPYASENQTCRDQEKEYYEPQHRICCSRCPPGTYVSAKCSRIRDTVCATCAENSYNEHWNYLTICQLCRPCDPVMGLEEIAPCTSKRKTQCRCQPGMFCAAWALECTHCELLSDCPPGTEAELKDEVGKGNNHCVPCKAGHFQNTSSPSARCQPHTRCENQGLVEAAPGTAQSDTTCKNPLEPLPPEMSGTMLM
molecule,measurement,setting,value
apoptosis inducing anti-Fas Mab CH-11 (antibody),apoptosis of TIL1200 cells,[1],90%
B1,IC50 of cytotoxic effect on HT-29 cells in the presence of 10 u/ml IFNγ,[2],< 1 ng/mL
same,IC50 of cytotoxic effect on HT-29 cells in the presence of 10 u/ml IFNγ,[3],< 1 ng/mL
B2,binding result,[4],binds
